Experimental findings from patent US20240034813A1 (Janssen / Centocor, published 2024) are described below.

The target in test [1] is T1, recombinant human EGFR/ErbB1/HER1 with C-terminal His tag, Cy5-labeled (human, UniProt P00533 25-645, Cy5 label (reacted with Cy5 Mono NHS Ester; sites not stated)).
T1 construct: Commercial protein; also called Cy5-EGFR; Cy5-labeled EGFR antigen; not shown: C-terminal His tag
The test is described as follows: competitive TR-FRET (Eu-amivantamab/Cy5-EGFR), EC50 ratio vs Reference Material; Ex. 11 drug product, 0 months, 25 C table. From the text:
(§1) In this procedure, varying concentrations of unlabeled bispecific EGFR-cMet antibody sample compete with donor fluorophore (Europium (Eu) chelate) labeled bispecific EGFR-cMet antibody for binding to an acceptor fluorophore (Cy5)-labeled EGFR antigen. Excitation of the donor fluorophore results in a transfer of energy to the bound acceptor fluorophore (FRET process). The resultant FRET is detected by emission of light at 665 nm using a microplate reader capable of measuring time-resolved fluorescence. Sample dose response curves are compared to the RM.
(§2) EGFR Binding Materials and Methods. Certified commercial EGFR, a recombinant human EGFR/ErbB1/HER1 with C-terminal His tag is reacted with certified commercial Cy5 Mono NHS Ester to produce Cy5-labeled EGFR. Validated bispecific EGFR-cMet antibody is reacted with certified commercial Europium (Eu) chelate to produce Eu-labeled bispecific EGFR-cMet antibody. […] Fluorescence is then measured by spectrophotometry at 665 nm, plotted against antibody concentration and analyzed by a four-parameter logistic model. The antibody concentration required to obtain half of the maximum fluorescence response (EC50) is determined for RM, assay control and samples. The potencies of assay control and samples are calculated based on the ratio of the sample (or control) and RM EC50 values and reported as a percentage activity relative to the RM.

The target of test [2] is T2, recombinant cMet/HGFR with c-terminal His-tag, Cy5-labeled (UniProt P08581 25-932, limits assumed, Cy5 label (reacted with Cy5 Mono NHS Ester; sites not stated)).
T2 construct: Commercial protein; also called Cy5-c-MET; Cy5-labeled c-MET antigen; not shown: C-terminal His-tag
The test is described as follows: competitive TR-FRET (Eu-amivantamab/Cy5-c-MET), EC50 ratio vs Reference Material; Ex. 12 drug product with rHuPH20, 3 months at 25 C.
Excerpt: In this procedure, varying concentrations of unlabeled bispecific EGFR-cMet antibody sample compete with donor fluorophore (Europium (Eu) chelate) labeled bispecific EGFR-cMet antibody for binding to an acceptor fluorophore (Cy5)-labeled c-MET antigen. Excitation of the donor fluorophore results in a transfer of energy to the bound acceptor fluorophore (FRET process). The resultant FRET is detected by emission of light at 665 nm using a microplate reader capable of measuring time-resolved fluorescence. Sample dose response curves are compared to the Reference Material (RM).
as §2, with “c-MET Binding” for “EGFR Binding”, “commercial cMet,” for “commercial EGFR,”, “recombinant cMet/HGFR” for “recombinant human EGFR/ErbB1/HER1”, “with c-terminal His-tag” for “with C-terminal His tag”, “Cy5-labeled c-MET.” for “Cy5-labeled EGFR.”, “produce Eu labeled” for “produce Eu-labeled”
A general note: In TR-FRET formats the signal depends on donor and acceptor labels being close together.

For test [3], the target named is T1, recombinant human EGFR/ErbB1/HER1 with …. The test is described as follows: competitive TR-FRET (Eu-amivantamab/Cy5-EGFR), EC50 ratio vs Reference Material; Ex. 11 drug product, 0 months, 40 C table.
Excerpt: as §1, §2

For test [4] the target is unchanged. The test is described as follows: competitive TR-FRET (Eu-amivantamab/Cy5-EGFR), EC50 ratio vs Reference Material; Ex. 2 Formulation 2 (50 mM histidine), T0, 25 C table.
Excerpt: as §1, §2

Test [5] shares this target. The test is described as follows: competitive TR-FRET (Eu-amivantamab/Cy5-EGFR), EC50 ratio vs Reference Material; Ex. 2 Formulation 1 (10 mM histidine), T0, 40 C table.
Excerpt: as §1, §2

Test [6] has the same target. The test is described as follows: competitive TR-FRET (Eu-amivantamab/Cy5-EGFR), EC50 ratio vs Reference Material; Ex. 12 drug product with rHuPH20, 9 months at 5 C.
Excerpt: as §1, §2

The target is the same in test [7]. The test is described as follows: competitive TR-FRET (Eu-amivantamab/Cy5-EGFR), EC50 ratio vs Reference Material; Ex. 3 acetate formulation, 6 months at 25 C then shaking up to 72 h.
Excerpt: as §1, §2

Test [8] shares this target. The test is described as follows: competitive TR-FRET (Eu-amivantamab/Cy5-EGFR), EC50 ratio vs Reference Material; Ex. 3 acetate formulation with PS80, T0.
Excerpt: as §1, §2

B1: amivantamab (bispecific antibody, human IgG1, kappa)
heavy 1: not shown
light 1: not shown
heavy 2: not shown
light 2: DIQMTQSPSSVSASVGDRVTITCRASQGISNWLAWFQHKPGKAPKLLIYAASSLLSGVPSRFSGSGSGTDFTLTISSLQPEDFATYYCQQANSFPITFGQGTRLEIKRTVAAPSVFIFPPSDEQLKSGTASVVCLLNNFYPREAKVQWKVDNALQSGNSQESVTEQDSKDSTYSLSSTLTLSKADYEKHKVYACEVTHQGLSSPVTKSFNRGEC
notes: The samples tested were high concentration (160 mg/mL) formulations, fresh or stored or stressed; also called JNJ-61186372; bispecific EGFR-cMet antibody
As for B1, the results for the “EGFR Binding activity relative to Reference Material (%)” value in test [1], in test [3] and in test [6] were 89%, 89% and 87%, respectively. Besides, in test [2], the “cMET Binding activity relative to Reference Material (%)” value worked out at 81%. Also, the “EGFR Binding % activity relative to RM” value in test [4] stood at 103%; in test [5], 103%; in test [7], 86%; in test [8], 103%.
